Results: patent US20100136061A1 (LA JOLLA INSTITUTE FOR ALLERGY AND IMMUNOLOGY, published 2010)

T1: Heterotrimeric human LIGHT 32L-214E/32S-214K (combination of LIGHT-S32L and LIGHT-E214K subunits) expressed … (human, UniProt O43557 1-240; O43557 1-240)
T1 construct: Both polymorphic forms co-expressed in EL4 cells; also called combination of LIGHT-E214K and LIGHT-S32L
T1 chain 1: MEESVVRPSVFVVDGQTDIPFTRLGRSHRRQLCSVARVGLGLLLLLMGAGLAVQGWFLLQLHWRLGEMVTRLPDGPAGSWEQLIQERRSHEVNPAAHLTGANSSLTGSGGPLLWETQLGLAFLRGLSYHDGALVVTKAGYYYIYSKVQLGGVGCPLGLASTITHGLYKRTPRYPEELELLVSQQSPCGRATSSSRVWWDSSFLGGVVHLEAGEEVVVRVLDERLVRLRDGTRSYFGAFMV
T1 chain 2: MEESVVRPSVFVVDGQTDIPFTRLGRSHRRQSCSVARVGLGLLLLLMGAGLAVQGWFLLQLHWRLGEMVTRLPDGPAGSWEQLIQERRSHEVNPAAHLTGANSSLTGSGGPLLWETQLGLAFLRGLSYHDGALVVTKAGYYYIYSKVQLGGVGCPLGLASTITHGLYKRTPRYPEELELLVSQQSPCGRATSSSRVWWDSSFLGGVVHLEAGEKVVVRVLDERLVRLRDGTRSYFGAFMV

B1: DcR3-Fc (human Decoy Receptor 3 Fc fusion) (Fc fusion, UniProt O95407 30-300, looked up)
chain: VAETPTYPWRDAETGERLVCAQCPPGTFVQRPCRRDSPTTCGPCPPRHYTQFWNYLERCRYCNVLCGEREEEARACHATHNRACRCRTGFFAHAGFCLEHASCPPGAGVIAPGTPSQNTQCQPCPPGTFSASSSSSEQCQPHRNCTALGLALNVPGSSSHDTLCTSCTGFPLSTRVPGAEECERAVIDFVAFQDISIKRLQRLLQALEAPEGWGPTPRAGRAALQLKLRRRLTELLGAQDGALLVRLLQALRVARMPGLERSVRERFLPVH
notes: also called human DcR3; not shown: Fc part

Assays:
[1] = biological target: B1; assay: competition flow cytometry, graded DcR3-Fc against constant LTβR-Fc on LIGHT expressing EL4 cells
Procedure: (§1) FIGS. 11A-11B. Competition binding assay for LTβR-Fc to LIGHT expressing EL4 cells in the presence of DcR3. […] Specific LTβR-Fc binding to the LIGHT expressing EL4 cells was detected with an anti-LTβR monoclonal antibody (BD-A8). (B) IC50 values were calculated by nonlinear regression analysis using Prism GraphPad (v4; San Diego, USA).

[2] = biological target: T1, Heterotrimeric human LIGHT …; assay: as above
Procedure: as §1

| Binder | binding result [1] | IC50 ratio against the predominant form of LIGHT (SEQ ID NO:1) [2] |
| --- | --- | --- |
| Full Length Human LIGHT, predominant form (32S-214E), expressed on EL4 cells (ligand, Stably expressed on mouse EL4 thymoma cells by retroviral transduction; also called p30 polypeptide; TNFSF-14) MEESVVRPSVFVVDGQTDIPFTRLGRSHRRQSCSVARVGLGLLLLLMGAGLAVQGWFLLQLHWRLGEMVTRLPDGPAGSWEQLIQERRSHEVNPAAHLTGANSSLTGSGGPLLWETQLGLAFLRGLSYHDGALVVTKAGYYYIYSKVQLGGVGCPLGLASTITHGLYKRTPRYPEELELLVSQQSPCGRATSSSRVWWDSSFLGGVVHLEAGEEVVVRVLDERLVRLRDGTRSYFGAFMV | binds | – |
| B1 | – | ~2.5 times |
